Laboratory results published in patent US20090041783A1 (MOCHIDA PHARMACEUTICAL, published 2009).
Each block holds one binder with its values, some of them ahead of it.

Tests used:
[1] = molecular target: T1, hGPVI-K59E-hFc (human); assay: competition ELISA on hGPVI-hFc plate; soluble hGPVI-K59E-hFc as competitor
T1 construct: Fusion of human GPVI extracellular region with lysine at 59 of human GPVI substituted for glutamic acid, and human Fc
Method: (§1) To the plate, wherein hGPVI-hFc has been immobilized at 4 μg/mL, a mixture of peroxidase-labeled F1232-37-2 or cF1232-37-2 by the method described in EXAMPLE 14, and hGPVI-hFc, mGPVI-hFc, hGPVI-mL3-hFc, wherein these were prepared in EXAMPLE 7, or hGPVI-K59E-hFc (a fusion protein consisting of one amino acid mutated human GPVI extracellular region, wherein lysine at 59 of human GPVI is substituted for glutamic acid, and human Fc), which has been prepared by the same method as that of EXAMPLE 1 and diluted with 0.1% BSA/PBS was added, and the plate was incubated at 37° C. for one hour. After incubation, the mixture was developed using TMB solution, and absorbance at 450 nm was measured.

[2] = molecular target: T2, human GPVI extracellular region-human Fc fusion protein (hGPVI-hFc) (human); assay: competition ELISA on immobilised hGPVI-hFc: unlabelled antibody against labelled cF1232-37-2/COS
T2 construct: Expressed in COS-1, purified on Protein A; also called GPVI-HHH-hFc; hGPVIHHH-hFc
Method: as §1
To confirm the reactivity of cF1232-37-2/CHO, using binding ability to hGPVI-hFc as an index, the competitive test with cF1232-37-2 prepared by transient gene expression system with COS cells was performed. The measurement method was in accordance with the method described in 17-3 of EXAMPLE 17. Using hGPVI-hFc as an immobilized protein, a competitive activity to labeled cF1232-37-2/COS was confirmed when unlabeled cF1232-37-2/CHO or cF1232-37-2/COS was added at a variety of concentration. It was confirmed that the reactivity of cF1232-37-2/CHO is equivalent to that of cF1232-37-2/COS.

[3] = molecular target: T3, hGPVI-mL3-hFc (human (loop 3 from mouse)); assay: competition ELISA on hGPVI-hFc plate; soluble hGPVI-mL3-hFc as competitor
T3 construct: also called hGPVI-hFc-mL3
Method: as §1

[4] = molecular target: T2, human GPVI extracellular region-human …; assay: SPR (BIACORE 3000), hGPVI-hFc on CM5 chip, 0-800 nM analyte, 1:1 binding fit
Method: (§2) Dissociation constant for F1232-37-2 (whole antibody) prepared in EXAMPLE 2, and F(ab′)2 and Fab prepared in 22-1 and 21-2 was measured with Protein Interaction Analyzer BIACORE 3000 (BIACORE). That is, to sensorchip CM5 (BIACORE) hGPVI-hFc prepared in EXAMPLE 1 was bound according to the manual. Then a series of dilution from 0 to 800 nM of each antibody was prepared with HBS-EP buffer (BIACORE) and analyzed with BIACORE 3000. After completion of antibody binding, chip was regenerated with glycine buffer (pH 1.5) (BIACORE). Regarding the results of whole antibody and F(ab′)₂, evaluation software Bivalent analyte (BIACORE) was used for analysis; 1:1 Binding for Fab analysis. Then the dissociation constant was calculated. As a result, dissociation constant of F1232-37-2 F(ab′)2 and Fab was about 0.7 and 0.6, respectively, when that of whole antibody defined as one.

[5] = molecular target: T2, human GPVI extracellular region-human …; assay: ELISA on immobilised hGPVI-hFc (GPVI antigen binding assay of Example 31)
[6] = molecular target: T2, human GPVI extracellular region-human …; assay: SPR (BIACORE 3000), hGPVI-hFc on CM5 chip, 0-800 nM analyte, bivalent analyte fit
Method: as §2

[7] = molecular target: T2, human GPVI extracellular region-human …; assay: SPR (BIACORE3000), GPVI-Fc on CM5 chip, antibody 1.25-40 nM as analyte, bivalent analyte fit
Method: (§3) Dissociation constant for the anti-GPVI monoclonal antibody prepared in EXAMPLE 2 was measured using protein interaction analyzer BIACORE3000 (BIACORE). That is, to sensor chip, CM5 chip (BIACORE), GPVI substitution mutant (hGPVIHHH-hFc and FFH-hFc) that is prepared in EXAMPLE 1 was linked according to the manual. Then each antibody was diluted with HBS-EP buffer solution (BIACORE) to prepare a series of diluted solution from 1.25 to 40 nM, and analyzed with BIACORE3000. Every each antibody bound chip, the chip was regenerated with glycine buffer solution at pH1.5. The obtained result was analyzed with Bivalent analyte, the evaluation software (BIACORE) to calculate dissociation constant. It was shown that each anti-GPVI monoclonal antibody has a sufficient affinity to GPVI-HHH-hFc.

[8] = molecular target: T4, cynomolgus monkey D1D2-human D3 chimeric GPVI-human Fc fusion protein (GPVI-FFH-hFc) (cynomolgus monkey (D1, D2) and human …); assay: as above
T4 construct: also called Monkey GPVI
Method: as §3

[9] = molecular target: T2, human GPVI extracellular region-human …; assay: ELISA on immobilised hGPVI-hFc, peroxidase-labelled anti-mouse immunoglobulin antibody
Method: Binding activity to the antigen was detected by ELISA. To each well of immunoplate immobilized with hGPVI-hFc (prepared by the method described in EXAMPLE 2 and the like), F1232-37-2 antibody and F1232-37-2 PEGylated antibody, wherein both antibodies had been adjusted to the same concentration, was added and the plate was incubated at 37° C. for one hour. The well was washed with saline containing 0.05% Tween20. Then 50 μL of peroxidase-labeled anti-mouse immunoglobulin antibody (DAKO, P260), which had been diluted by 1000-fold with 10% rabbit serum-containing D-PBS, was added to each well. After incubation at 37° C. for one hour, coloring reaction by the TMB substrate was done to measure an absorbance at 450 nm with plate spectro-photometer (Molecular Devices, Wako). As a result, it was confirmed that both F1232-37-2 antibody and PEGylated F1232-37-2 antibody have almost equivalent binding activity.

[10] = molecular target: T2, human GPVI extracellular region-human …; assay: blocking ELISA: binding of hGPVI-hFc to immobilised collagen in the presence of the antibody (panel Comparsion of mouse anti-GPVI monoclonal antibodies)
[11] = molecular target: T2, human GPVI extracellular region-human …; assay: competition ELISA on immobilised hGPVI-hFc: unlabelled antibody against the peroxidase-labelled mouse antibody of the panel titled F1232-10-2 competition assay (the text, paragraph 248, names F1232-10-1); x axis relative amount to labeled Ab (fold)
Method: Next, by using the peroxidase-labeled antibody, the competitive test for a variety of purified antibody was performed. That is, 25 μL of the above labeled antibody and 25 μL of each purified antibody were added to well of hGP-hFc-immobilized plate. After incubation at 37° C. for one hour, the well was washed five times with the saline containing 0.05% Tween20, and the reaction mixture was developed with TMB solution (BioFix). After incubation at room temperature for 10 minutes, the reaction was terminated with 0.5 M sulfuric acid solution and an absorbance at 450 nm was measured with the plate spectrophotometer (Multi-Scan JX, Dainippon Pharmaceutical).
To compare an antigen binding property of mouse/human chimeric antibody with that of the corresponding mouse monoclonal antibody, in the same method as that of EXAMPLE 14, peroxidase-labeled F1232-37-2, F1232-18-3, F1232-43-3 and F1232-10-1 were prepared. […] Further, an inhibiting activity of each antibody for binding of GPVI to collagen was measured according to the method described in EXAMPLE 2 or EXAMPLE 14. […]

T2 sequence (chain, as listed by the source limits assumed): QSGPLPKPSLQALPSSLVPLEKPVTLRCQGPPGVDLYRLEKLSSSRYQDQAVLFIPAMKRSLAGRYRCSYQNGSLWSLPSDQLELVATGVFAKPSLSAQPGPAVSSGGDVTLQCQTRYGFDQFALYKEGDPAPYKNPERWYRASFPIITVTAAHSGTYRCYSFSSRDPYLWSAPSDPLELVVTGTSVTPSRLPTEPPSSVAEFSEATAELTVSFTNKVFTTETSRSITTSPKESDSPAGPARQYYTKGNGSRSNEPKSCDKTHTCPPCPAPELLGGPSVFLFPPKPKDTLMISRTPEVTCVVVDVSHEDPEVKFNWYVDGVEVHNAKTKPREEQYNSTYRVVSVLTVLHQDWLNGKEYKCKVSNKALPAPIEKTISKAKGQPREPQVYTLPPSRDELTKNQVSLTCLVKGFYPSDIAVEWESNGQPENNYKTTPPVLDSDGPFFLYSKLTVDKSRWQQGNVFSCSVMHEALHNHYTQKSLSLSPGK
T3 sequence (chain, as listed by the source limits assumed): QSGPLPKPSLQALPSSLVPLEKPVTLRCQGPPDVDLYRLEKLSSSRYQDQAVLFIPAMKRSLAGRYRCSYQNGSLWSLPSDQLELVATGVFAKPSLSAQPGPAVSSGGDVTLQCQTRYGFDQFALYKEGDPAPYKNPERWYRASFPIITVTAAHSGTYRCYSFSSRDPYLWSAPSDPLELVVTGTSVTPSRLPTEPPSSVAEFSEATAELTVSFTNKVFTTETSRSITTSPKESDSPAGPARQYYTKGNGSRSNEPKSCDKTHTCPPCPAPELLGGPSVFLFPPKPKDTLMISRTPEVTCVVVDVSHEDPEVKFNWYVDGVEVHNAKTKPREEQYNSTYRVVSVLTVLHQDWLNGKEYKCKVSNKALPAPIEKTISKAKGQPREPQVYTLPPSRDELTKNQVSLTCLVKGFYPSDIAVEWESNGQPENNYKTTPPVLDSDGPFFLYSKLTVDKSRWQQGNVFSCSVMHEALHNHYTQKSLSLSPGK
T1 sequence (chain, as listed by the source K59E K59E limits assumed): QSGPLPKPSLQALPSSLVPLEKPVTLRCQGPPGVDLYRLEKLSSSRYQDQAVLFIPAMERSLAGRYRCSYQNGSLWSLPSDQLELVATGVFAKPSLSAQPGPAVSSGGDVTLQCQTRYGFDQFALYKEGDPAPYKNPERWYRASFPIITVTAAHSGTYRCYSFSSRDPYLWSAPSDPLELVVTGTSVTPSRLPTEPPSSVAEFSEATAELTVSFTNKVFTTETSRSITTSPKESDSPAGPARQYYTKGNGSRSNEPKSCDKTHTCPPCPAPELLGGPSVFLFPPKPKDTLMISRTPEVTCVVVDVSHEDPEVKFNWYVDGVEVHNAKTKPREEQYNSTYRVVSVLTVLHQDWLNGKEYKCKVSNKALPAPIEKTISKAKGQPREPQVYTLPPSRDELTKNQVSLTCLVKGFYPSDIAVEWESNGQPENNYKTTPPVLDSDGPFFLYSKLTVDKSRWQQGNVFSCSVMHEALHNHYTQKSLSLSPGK
T4 sequence (chain, as listed by the source mutant limits assumed): as the sequence (chain, as listed by the source K59E K59E limits assumed) above, with S2R, E59K, S61H, L78P, R166G, V181M, P442S counted along it

B1: cF1232-37-2 (mouse/human chimeric antibody of F1232-37-2) (antibody, human IgG4, V domains shown)
VH: VQLQQSGPELVRPGESVKISCKGSGYTFTDYAIHWVKLSHAKSLEWIGVISIYYDDTNYNQKFKGKATMTVDKSSSTAYLELARLTSEDSAIYYCARRRDSSGPYAMDYWGQGTSVTVSS
VL: DIVLTQSPASLAVSLGQRATISCRASESVDSYGNSFMHWYQQKPGQPPKLLIYRASNLESGIPARFSGSGSRTDFTLTINPVEADDVATYYCQQSNEDPYTFGGGTKLEIKR
notes: Mouse V regions of F1232-37-2 with human IgG4 (Cgamma4) and human kappa constant regions; plasmids pTK-2510 and pTK-2511; made in COS-1 (/COS) and in CHO DXB11 (/CHO); also called cF1232-37-2/COS; cF1232-37-2/CHO
binding result [1]: binds | IC50 (read off the curve) [2]: ~1 µg/mL | binding result [3]: binds

B3: F1232-37-2 F(ab')2 (other)
VH: VQLQQSGPELVRPGESVKISCKGSGYTFTDYAIHWVKLSHAKSLEWIGVISIYYDDTNYNQKFKGKATMTVDKSSSTAYLELARLTSEDSAIYYCARRRDSSGPYAMDYWGQGTSVTVSS
VL: DIVLTQSPASLAVSLGQRATISCRASESVDSYGNSFMHWYQQKPGQPPKLLIYRASNLESGIPARFSGSGSRTDFTLTINPVEADDVATYYCQQSNEDPYTFGGGTKLEIKRADAA
notes: F(ab')2 fragment made from mouse F1232-37-2 with Lysyl Endopeptidase; also called mouse monoclonal antibody F1232-37-2 F(ab')2
dissociation constant relative to that of the whole antibody (defined as one) [6]: ~0.7 fold of whole F1232-37-2

B4: F1232-37-2 (antibody, V domains shown)
VH: VQLQQSGPELVRPGESVKISCKGSGYTFTDYAIHWVKLSHAKSLEWIGVISIYYDDTNYNQKFKGKATMTVDKSSSTAYLELARLTSEDSAIYYCARRRDSSGPYAMDYWGQGTSVTVSS
VL: DIVLTQSPASLAVSLGQRATISCRASESVDSYGNSFMHWYQQKPGQPPKLLIYRASNLESGIPARFSGSGSRTDFTLTINPVEADDVATYYCQQSNEDPYTFGGGTKLEIKR
notes: Mouse hybridoma monoclonal antibody; also called F1232-37-2 antibody; F1232-37-2 whole antibody
Kd [7]: 0.403 nM | Kd [8]: 1 nM | binding result [1]: binds | EC50 (read off the curve) [9]: ~0.02 µg/mL | binding result [3]: binds

B5: F1232-10-1 (antibody, V domains shown)
VH: VTLKESGPGILQPSQTLSLTCSFSGFSLSTYGIGVGWIRQPSGKGLEWLAHIWWNDDKYYNTALKSRLTISKDTSNNQVFLKIASVDTADTATYYCARVYYYGSSFDYWGQGTTLTVSS
VL: DIQMTQSPASLSASVGETVTITCRASENIFSILAWYQQKQGKSPQLLVYAATNLADGVPSRFSGSGSGTQFSLKINSLQPEDFGSYYCQHFYGTPWTFGGGTKLEIKR
notes: Mouse hybridoma monoclonal antibody
binding result [10]: binds

Further lines, results first:

dissociation constant relative to that of the whole antibody (defined as one) [4]: ~0.6 fold of whole F1232-37-2 | EC50 (read off the curve) [5]: ~0.3 µg/mL
B2: F1232-37-2 Fab (Fab, V domains shown)
VH: VQLQQSGPELVRPGESVKISCKGSGYTFTDYAIHWVKLSHAKSLEWIGVISIYYDDTNYNQKFKGKATMTVDKSSSTAYLELARLTSEDSAIYYCARRRDSSGPYAMDYWGQGTSVTVSS
VL: DIVLTQSPASLAVSLGQRATISCRASESVDSYGNSFMHWYQQKPGQPPKLLIYRASNLESGIPARFSGSGSRTDFTLTINPVEADDVATYYCQQSNEDPYTFGGGTKLEIKR
notes: Fab made from mouse F1232-37-2 with papain; also called F1232-37-2 Fab antibody

binding result [11]: binds
B6: cF1232-10-1 (antibody, human IgG4, V domains shown)
VH: VTLKESGPGILQPSQTLSLTCSFSGFSLSTYGIGVGWIRQPSGKGLEWLAHIWWNDDKYYNTALKSRLTISKDTSNNQVFLKIASVDTADTATYYCARVYYYGSSFDYWGQGTTLTVSS
VL: DIQMTQSPASLSASVGETVTITCRASENIFSILAWYQQKQGKSPQLLVYAATNLADGVPSRFSGSGSGTQFSLKINSLQPEDFGSYYCQHFYGTPWTFGGGTKLEIKR
notes: Mouse/human chimeric antibody of F1232-10-1; human IgG4 and kappa constant regions; COS-1
